In the Immune Epitope Database (IEDB):

Experiments:
HLA-A*01:01 = test: IEDB peptide-MHC binding, purified MHC/direct/fluorescence; filed as Kd, often an IC50 or EC50 that approximates it; ≥ and ≤ were set here for values at or beyond the usual limits of such assays; details: source organism: Giardia lamblia ATCC 50803
HLA-A*02:01 = test: as above; details: source organism: Giardia lamblia ATCC 50803
HLA-A*02:06 = test: as above; details: source organism: Giardia lamblia ATCC 50803
HLA-A*02:11 = test: as above; details: source organism: Giardia lamblia ATCC 50803
HLA-A*02:12 = test: as above; details: source organism: Giardia lamblia ATCC 50803
HLA-A*02:16 = test: as above; details: source organism: Giardia lamblia ATCC 50803
HLA-A*03:01 [1] = test: as above; details: source organism: Giardia lamblia ATCC 50803
HLA-A*11:01 [2] = test: as above
HLA-A*24:02 = test: as above; details: source organism: Giardia lamblia ATCC 50803
HLA-A*31:01 [3] = test: as above
HLA-B*07:02 = test: as above
HLA-B*08:02 [4] = test: as above
HLA-B*15:01 = test: as above; details: source organism: Giardia lamblia ATCC 50803
HLA-B*18:01 = test: as above; details: source organism: Giardia lamblia ATCC 50803
HLA-B*27:05 = test: as above
HLA-B*40:01 = test: as above
HLA-B*44:02 = test: as above; details: source organism: Giardia lamblia ATCC 50803
HLA-B*46:01 = test: as above
HLA-B*58:01 = test: as above
HLA-A*02:03 = test: IEDB peptide-MHC binding, purified MHC/competitive/fluorescence; filed as Kd, often an IC50 or EC50 that approximates it; ≥ and ≤ were set here for values at or beyond the usual limits of such assays; details: source organism: Giardia lamblia ATCC 50803
HLA-C*01:02 = test: IEDB peptide-MHC binding, purified MHC/direct/fluorescence; filed as Kd, often an IC50 or EC50 that approximates it; ≥ and ≤ were set here for values at or beyond the usual limits of such assays; details: source organism: Homo sapiens
HLA-A*68:02 = test: as above; details: source organism: Mycobacterium tuberculosis
HLA-B*08:01 = test: as above; details: source organism: Mycobacterium tuberculosis str. Haarlem
HLA-B*08:03 = test: as above; details: source organism: Mycobacterium tuberculosis str. Haarlem
HLA-B*48:01 = test: as above; details: source organism: Mycobacterium tuberculosis
HLA-B*57:01 = test: as above; details: source organism: Mycobacterium tuberculosis
HLA-A*03:01 [5] = test: IEDB peptide-MHC binding, purified MHC/competitive/fluorescence; filed as Kd, often an IC50 or EC50 that approximates it; ≥ and ≤ were set here for values at or beyond the usual limits of such assays; details: source organism: Human immunodeficiency virus 1
HLA-A*11:01 [6] = test: as above; details: source organism: Human immunodeficiency virus 1
HLA-A*26:01 = test: as above; details: source organism: Human immunodeficiency virus 1
HLA-A*26:03 = test: as above; details: source organism: Human immunodeficiency virus 1
HLA-A*30:01 = test: as above; details: source organism: Human immunodeficiency virus 1
HLA-A*31:01 [7] = test: as above; details: source organism: Human immunodeficiency virus 1
HLA-B*08:02 [8] = test: as above; details: source organism: Human immunodeficiency virus 1
[9] = source organism: Giardia lamblia ATCC 50803
[10] = source organism: Mycobacterium tuberculosis

HCIDKTPGL
Kd (HLA-A*01:01): ≥ 20 µM | Kd (HLA-A*02:01): 0.319 µM | Kd (HLA-A*02:06): 0.106 µM | Kd (HLA-A*02:11): 0.914 µM | Kd (HLA-A*02:12): 0.26 µM | Kd (HLA-A*02:16): 0.39 µM | Kd (HLA-A*03:01 [1]): ≥ 20 µM | Kd (HLA-A*11:01 [2]; [9]): ≥ 20 µM | Kd (HLA-A*24:02): ≥ 20 µM | Kd (HLA-A*31:01 [3]; [9]): ≥ 20 µM | Kd (HLA-B*07:02; [9]): ≥ 20 µM | Kd (HLA-B*08:02 [4]; [9]): ≥ 20 µM | Kd (HLA-B*15:01): ≥ 20 µM | Kd (HLA-B*18:01): ≥ 20 µM | Kd (HLA-B*27:05; [9]): ≥ 20 µM | Kd (HLA-B*40:01; [9]): ≥ 20 µM | Kd (HLA-B*44:02): ≥ 20 µM | Kd (HLA-B*46:01; [9]): ≥ 20 µM | Kd (HLA-B*58:01; [9]): ≥ 20 µM | Kd (HLA-A*02:03): 2.48 µM

PLPDRSLPAL
Kd (HLA-C*01:02): ≤ 0.0001 µM

TLLESFLFY
Kd (HLA-A*11:01 [2]; [10]): 0.01 µM | Kd (HLA-A*31:01 [3]; [10]): ≥ 20 µM | Kd (HLA-A*68:02): ≥ 20 µM | Kd (HLA-B*07:02; [10]): ≥ 20 µM | Kd (HLA-B*08:01): ≥ 20 µM | Kd (HLA-B*08:02 [4]; source organism: Mycobacterium tuberculosis str. Haarlem): ≥ 20 µM | Kd (HLA-B*08:03): ≥ 20 µM | Kd (HLA-B*27:05; [10]): ≥ 20 µM | Kd (HLA-B*40:01; [10]): ≥ 20 µM | Kd (HLA-B*46:01; [10]): ≥ 20 µM | Kd (HLA-B*48:01): ≥ 20 µM | Kd (HLA-B*57:01): ≥ 20 µM | Kd (HLA-B*58:01; [10]): ≥ 20 µM

IATLYCVHQR
Kd (HLA-A*03:01 [5]): ≥ 20 µM | Kd (HLA-A*11:01 [6]): 5.82 µM | Kd (HLA-A*26:01): ≥ 20 µM | Kd (HLA-A*26:03): ≥ 20 µM | Kd (HLA-A*30:01): 5.99 µM | Kd (HLA-A*31:01 [7]): 0.761 µM | Kd (HLA-B*08:02 [8]): ≥ 20 µM
